From the RNAGym collection of RNA variant scans (doi:10.7554/elife.80360) come the findings set out here.

B1: Hairpin Ribozyme (parent)
chain: GUCCUCUUUCACGUGCGCGUGAAAGAGAGAAGUGAACCAGAGAAACACACGUUGUGGUAUAUUACCUGGUA

In this data set the parent is B1. Put plainly: self-cleavage, relative activity (ratio to wild type); higher = more cleavage; co-transcriptional.
With GUACUCUUUCACGUGCGCGUGAAAGAGAGAAGUGAACCAGAGAAACGCACGUUGUGGUAUAUUACCUGGUA, the self-cleavage turned out to be 0.191.
In the case of GUACUCUUUCACGUGCGCGUGAAACAGAGAAGUGAACCAGAGAAACACACGUUGUGGUAUAUUACCUGGUA it was 0.202.
In the case of GUACUCUUUCACGUGCGCGUGAAAGAGAGAAGUGAACCAGAGAAACACACGUUGUGGUAUAUUCCCUGGUA it was 0.197.
Turning to GUACUCUUUCACGUGCGCGUGAAAGAGAGAAGUGAACCAGAGAAACACACGUUGUGGUAUAUUGCCUGGUA, the self-cleavage turned out to be 0.54.
In the case of GUACUCUUUCACGGGCGCGUGAAAGAGAGAAGUGAACCAGAGAAACACACGUUGUGGUAUAUUACCUGGUA it was 0.623; in that of GGCCUCUUUCACGUGCGCGUGAAAGAGAGAAGUGAACCAGAGAAACACACGUUGUGGUAUAUUACCCGGUA, 0.102; in that of GUACUCUUUCACGUGCGCGUGAAAGAGAGAAGUGAACCAGAGUAACACACGUUGUGGUAUAUUACCUGGUA, 0.179.
The same measure for GUACUCUUUCACGUGCGCGUGAAAGAGAGAAGUGAACCAGAGCAACACACGUUGUGGUAUAUUACCUGGUA: 0.0772.
The same measure for GUACUCUUUCACGUGCGCGUGAAAGAGAGAAGAGAACCAGAGAAACACACGUUGUGGUAUAUUACCUGGUA: 0.0769.
As for GUACUCUUUCACGUGCGAGUGAAAGAGAGAAGUGAACCAGAGAAACACACGUUGUGGUAUAUUACCUGGUA, the self-cleavage was determined as 0.634.
For GUACUCUUUCACGUGCGUGUGAAAGAGAGAAGUGAACCAGAGAAACACACGUUGUGGUAUAUUACCUGGUA, the self-cleavage is 0.717.
In the case of GUACUCUUUCACGUGCGCGUGAAAGAGAGAAGUGAACCAGAGAAACACACGUUCUGGUAUAUUACCUGGUA, the self-cleavage was 0.206.
In the case of GUACUCUUUCACGUGCGCGUGAAAGAGAGAAGUGAACCAGAGAAACACACGUUAUGGUAUAUUACCUGGUA it was 0.351; in that of GUACUCUUUCACGUGCGCGUGAAAGAGAGAAGUGAACCAGAGAAACACACGUUGUGGUCUAUUACCUGGUA, 0.121.
The same measure for GUACUCUUUCACGUGCGCGUGAAAGAGAGAAGUGAACCAGAGAAACACACGUUGUGGUGUAUUACCUGGUA: 0.0686; for GUAGUCUUUCACGUGCGCGUGAAAGAGAGAAGUGAACCAGAGAAACACACGUUGUGGUAUAUUACCUGGUA: 0.359; for GUAUUCUUUCACGUGCGCGUGAAAGAGAGAAGUGAACCAGAGAAACACACGUUGUGGUAUAUUACCUGGUA: 0.42.
For GUACUCUUUCACGUGCGCGUGAAUGAGAGAAGUGAACCAGAGAAACACACGUUGUGGUAUAUUACCUGGUA, the self-cleavage was 0.703.
In the case of GGCCUCUUUCACGUGCGCGUGAAAGAGAGAAGUGAACCAGAGAAACACACGUUGUGGUAUAGUACCUGGUA it was 0.11; in that of GUACUCUUUCACGUGCGCGUGAAAGAGAGAAGUGUACCAGAGAAACACACGUUGUGGUAUAUUACCUGGUA, 0.479; in that of GUACUCUUUCACGUGCGCGUGAAAGAGAGAAGUGGACCAGAGAAACACACGUUGUGGUAUAUUACCUGGUA, 0.897.
In the case of GUACUUUUUCACGUGCGCGUGAAAGAGAGAAGUGAACCAGAGAAACACACGUUGUGGUAUAUUACCUGGUA it was 0.471; in that of GUACUCUUUCACGUGCGCGUGAAAGAGAGAGGUGAACCAGAGAAACACACGUUGUGGUAUAUUACCUGGUA, 0.425; in that of GUACUCUUUCACGUGCGCGUGAAAGAGAGAAGUGAACCAGAGAAACACACGUUGUGGUAUAUUACCUGGUU, 0.517.
With GUACUCUUUCACGUGCGCGUGAAAGAGAGAAGUGAACCAGAGAAACACACGUUGUGGUAUAUUACCUGGUC, the self-cleavage is 1.11.
In the case of GUACUCUUUCACGUGCGCGUGAAAGAGAUAAGUGAACCAGAGAAACACACGUUGUGGUAUAUUACCUGGUA it was 0.0763; in that of GUACUCUUUCACGUGCGCGUGAAAGAGAGAAGUGAACCAGAGAAACACACGUUGUGGUAUAUUACCUGGUA, 0.714; in that of GUACUCUUUCACGUGCGCGUGAAAGAGAGAAGUGAACCAGAGAAACACACGUUGUGCUAUAUUACCUGGUA, 0.169.
In the case of GUACUCUUUCACGUGCGCGUGCAAGAGAGAAGUGAACCAGAGAAACACACGUUGUGGUAUAUUACCUGGUA it was 0.593; in that of GUACUCUUUCACGUGCGCGUGAAAGAGAGAAGUGAACCAGAGAAAUACACGUUGUGGUAUAUUACCUGGUA, 0.111.
For the variant GUACUCUUUCACCUGCGCGUGAAAGAGAGAAGUGAACCAGAGAAACACACGUUGUGGUAUAUUACCUGGUA, the self-cleavage turned out to be 0.51.
The same measure for GUACUCUUUCACGUGCGCGUGAAAGAGAGAAGUGAACCAGAGAAACACCCGUUGUGGUAUAUUACCUGGUA: 0.164; for GUACUCUUUCACGUGCGCGUGAAAGAGAGAAGUGAACCAGUGAAACACACGUUGUGGUAUAUUACCUGGUA: 1.25.
The same measure for GUACUCUUUCACGUGCGCGUGAAAGAGAGAAGUGAACCAGCGAAACACACGUUGUGGUAUAUUACCUGGUA: 1.07; for GUACUCUUUCACGUGCGCGUGAAAGAGAGAAGUGAACAAGAGAAACACACGUUGUGGUAUAUUACCUGGUA: 0.215; for GUACUCUUUCACGUGCGCGUGAAAGAGAGAAGUGAACCAGACAAACACACGUUGUGGUAUAUUACCUGGUA: 0.214.
The same measure for GUACUCUUUCACGUGCGCGAGAAAGAGAGAAGUGAACCAGAGAAACACACGUUGUGGUAUAUUACCUGGUA: 0.582; for GUACUCUUUCACGUGCGCGGGAAAGAGAGAAGUGAACCAGAGAAACACACGUUGUGGUAUAUUACCUGGUA: 0.607.
